From US6680177B2, “Low molecular weight heparin assay, system and reagent therefor” (Cardiovascular Diagnostics, Inc., priority 2001, dated 2004)
Numbering of substitutions follows the chain as printed.

System: citrated whole blood (CWB)
Assay: Interference testing for Rapidpoint ENOX test in citrated whole blood
Assay type: biochemical
Conditions: for EFFECT on ENOX test: CWB; for sensitivity of the ENOX test to the agent: in vitro, citrated whole blood

B1: Alteplase (protein, UniProt P00750 36-562, looked up)
Tissue-type plasminogen …: SYQVICRDEKTQMIYQQHQSWLRPVLRSNRVEYCWCNSGRAQCHSVPVKSCSEPRCFNGGTCQQALYFSDFVCQCPEGFAGKCCEIDTRATCYEDQGISYRGTWSTAESGAECTNWNSSALAQKPYSGRRPDAIRLGLGNHNYCRNPDRDSKPWCYVFKAGKYSSEFCSTPACSEGNSDCYFGNGSAYRGTHSLTESGASCLPWNSMILIGKVYTAQNPSAQALGLGKHNYCRNPDGDAKPWCHVLKNRRLTWEYCDVPSCSTCGLRQYSQPQFRIKGGLFADIASHPWQAAIFAKHRRSPGERFLCGGILISSCWILSAAHCFQERFPPHHLTVILGRTYRVVPGEEEQKFEVEKYIVHKEFDDDTYDNDIALLQLKSDSSRCAQESSVVRTVCLPPADLQLPDWTECELSGYGKHEALSPFYSERLKEAHVRLYPSSRCTSQHLLNRTVTDNMLCAGDTRSGGPQANLHDACQGDSGGPLVCLNDGRMTLVGIISWGLGCGQKDVPGVYTKVTNYLDWIRDNMRP
modifications: alteplase
notes: fibrinolytic agent tested as interferent
EFFECT on ENOX test (1000-3200 ng/ml): No effect at 1000-3200 ng/ml | sensitivity of the ENOX test to the agent: insensitive

B2: Tenecteplase (protein, UniProt P00750 36-562, looked up, variant T103N N117Q K296A H297A R298A R299A)
Tissue-type plasminogen …: B1 Tissue-type plasminogen … with T103N, N117Q, K296A, H297A, R298A, R299A
modifications: tenecteplase
notes: as for B1
EFFECT on ENOX test (0-10,000 ng/ml): No effect at 0-10,000 ng/ml | sensitivity of the ENOX test to the agent: insensitive

B3: Abciximab (antibody, chains of the INN, looked up, V domains shown)
VH: EVQLQQSGTVLARPGASVKMSCEASGYTFTNYWMHWVKQRPGQGLEWIGAIYPGNSDTSYIQKFKGKAKLTAVTSTTSVYMELSSLTNEDSAVYYCTLYDGYYVFAYWGQGTLVTVSA
VL: EIVLTQSPVTLSVTPGDSVSLSCRASRDISNNLHWFQQTSHESPRLLIKYASQSMSGIPSRFSGSGSGTDFTLSINSVETEDFGMYFCQQTNSWPYTFGGGTKLEIK
modifications: Fab
notes: antiplatelet agent tested as interferent
EFFECT on ENOX test (0-3600 ng/ml): No effect at 0-3600 ng/ml | sensitivity of the ENOX test to the agent: insensitive
